The target of experiment [1] is full-length wild-type rat DCC on the cell surface (UniProt Q63155). In words: cell-binding assay. The following applies: n = 100 for each group; parent: est. 49; read off a plot.
In experiment [2] the target is Netrin-1 (Homo sapiens) (UniProt O95631). The following applies: cited from earlier work.
Experiment [3] has the same target. The following applies: cited from earlier work. The source holds these as a separate data set.

Where two headings read alike, the source gives them in different places.

Chain of full-length wild-type rat DCC on the cell surface (Q63155 26-1445): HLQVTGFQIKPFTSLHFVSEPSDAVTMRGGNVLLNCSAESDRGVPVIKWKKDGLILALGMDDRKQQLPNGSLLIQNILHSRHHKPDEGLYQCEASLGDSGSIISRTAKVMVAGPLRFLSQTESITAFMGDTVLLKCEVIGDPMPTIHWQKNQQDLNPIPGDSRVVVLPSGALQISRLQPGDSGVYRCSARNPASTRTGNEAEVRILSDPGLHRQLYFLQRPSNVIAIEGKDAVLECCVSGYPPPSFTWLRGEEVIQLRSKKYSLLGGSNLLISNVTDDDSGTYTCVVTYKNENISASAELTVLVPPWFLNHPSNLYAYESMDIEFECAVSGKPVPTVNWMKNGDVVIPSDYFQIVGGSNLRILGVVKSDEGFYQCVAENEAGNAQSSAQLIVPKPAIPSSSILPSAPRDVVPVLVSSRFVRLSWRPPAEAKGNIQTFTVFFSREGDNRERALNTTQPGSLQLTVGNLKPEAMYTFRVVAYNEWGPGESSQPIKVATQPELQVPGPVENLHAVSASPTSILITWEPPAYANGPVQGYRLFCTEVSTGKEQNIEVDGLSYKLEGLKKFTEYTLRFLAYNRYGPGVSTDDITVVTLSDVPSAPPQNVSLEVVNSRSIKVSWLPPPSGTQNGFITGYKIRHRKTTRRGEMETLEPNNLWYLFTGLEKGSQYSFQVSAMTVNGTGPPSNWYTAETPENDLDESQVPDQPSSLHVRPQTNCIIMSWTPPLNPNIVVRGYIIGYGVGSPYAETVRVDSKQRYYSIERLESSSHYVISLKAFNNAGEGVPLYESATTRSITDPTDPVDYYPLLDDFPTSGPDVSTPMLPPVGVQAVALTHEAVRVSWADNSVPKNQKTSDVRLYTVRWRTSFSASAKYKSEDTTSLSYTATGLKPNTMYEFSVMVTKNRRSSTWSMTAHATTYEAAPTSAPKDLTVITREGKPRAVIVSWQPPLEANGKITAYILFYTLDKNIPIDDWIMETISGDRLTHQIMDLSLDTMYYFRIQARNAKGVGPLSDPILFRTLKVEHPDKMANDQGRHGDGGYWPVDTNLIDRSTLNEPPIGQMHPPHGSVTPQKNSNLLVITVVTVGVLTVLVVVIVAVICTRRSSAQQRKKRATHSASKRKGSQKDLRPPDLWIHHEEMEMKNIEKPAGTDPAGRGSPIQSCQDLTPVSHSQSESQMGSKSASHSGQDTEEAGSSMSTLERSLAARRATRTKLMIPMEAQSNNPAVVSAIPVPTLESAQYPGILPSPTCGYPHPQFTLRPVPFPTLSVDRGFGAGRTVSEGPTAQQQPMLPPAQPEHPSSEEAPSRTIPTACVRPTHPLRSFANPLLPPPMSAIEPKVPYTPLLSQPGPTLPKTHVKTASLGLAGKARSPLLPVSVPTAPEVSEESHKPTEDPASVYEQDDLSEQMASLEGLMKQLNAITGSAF
Chain of DCC Fn5 (P43146 846-942): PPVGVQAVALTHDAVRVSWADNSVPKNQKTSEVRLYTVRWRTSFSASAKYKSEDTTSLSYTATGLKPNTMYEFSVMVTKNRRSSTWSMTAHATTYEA

Consider wild-type rDraxin-Flag R282D, for which the response (% positive binding) in experiment [1] turned out to be 6.

Broadly, the Kd is the equilibrium constant for the complex coming apart. On to DCC Fn5 (from UniProt P43146), for which the Kd in experiment [2] is 5000 nM.

As for wild-type rDraxin-Flag R282A, the response (% positive binding) in experiment [1] stood at 59.

Regarding wild-type rDraxin-Flag R322A, the response (% positive binding) in experiment [1] is 3.

As to wild-type rDraxin-Flag R322D, the response (% positive binding) in experiment [1] is 10.

For the substance Draxin (from UniProt Q8NBI3), in experiment [3], the dissociation constant (Kd) is 10 nM.
